This is an account of results in paper PMC4980159 (Biochemistry, 2016).

Where two headings read alike, the source gives them in different places.

Experiment [1] has as its target CEACAM5 N-terminal domain (Homo sapiens) (UniProt P06731). As to conditions: cited from earlier work.
Target sequence in this assay (P06731 35-144): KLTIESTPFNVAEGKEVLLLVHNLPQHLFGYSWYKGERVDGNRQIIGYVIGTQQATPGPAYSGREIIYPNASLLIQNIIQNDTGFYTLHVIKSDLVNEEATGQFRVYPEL
The target in experiment [2] is Fluorescently labeled NCCM1 H139C (human) (UniProt P13688). Description: fluorescence polarisation. In general terms: Polarisation of emitted light reports the rotation of a fluorescent probe.
For experiment [3], the target named is Fluorescently labeled NCCM3 H139C (human) (UniProt P40198). The experiment is described as follows: fluorescence polarisation.
The target in experiment [4] is CEACAM5 N-terminal domain (Homo sapiens) (UniProt P06731). The following applies: cited from earlier work. The source holds these as a separate data set.
Experiment [5] addresses Fibronectin (Homo sapiens) (UniProt P02751). The following applies: cited from earlier work.
Experiment [6] addresses Recombinant OpaD reconstituted into liposomes (N. gonorrhoeae strain FA1090, UniProt Q04883 2-243). The experiment is described as follows: fluorescence polarisation.

Chain of Fibronectin (Homo sapiens) (P02751 32-2477): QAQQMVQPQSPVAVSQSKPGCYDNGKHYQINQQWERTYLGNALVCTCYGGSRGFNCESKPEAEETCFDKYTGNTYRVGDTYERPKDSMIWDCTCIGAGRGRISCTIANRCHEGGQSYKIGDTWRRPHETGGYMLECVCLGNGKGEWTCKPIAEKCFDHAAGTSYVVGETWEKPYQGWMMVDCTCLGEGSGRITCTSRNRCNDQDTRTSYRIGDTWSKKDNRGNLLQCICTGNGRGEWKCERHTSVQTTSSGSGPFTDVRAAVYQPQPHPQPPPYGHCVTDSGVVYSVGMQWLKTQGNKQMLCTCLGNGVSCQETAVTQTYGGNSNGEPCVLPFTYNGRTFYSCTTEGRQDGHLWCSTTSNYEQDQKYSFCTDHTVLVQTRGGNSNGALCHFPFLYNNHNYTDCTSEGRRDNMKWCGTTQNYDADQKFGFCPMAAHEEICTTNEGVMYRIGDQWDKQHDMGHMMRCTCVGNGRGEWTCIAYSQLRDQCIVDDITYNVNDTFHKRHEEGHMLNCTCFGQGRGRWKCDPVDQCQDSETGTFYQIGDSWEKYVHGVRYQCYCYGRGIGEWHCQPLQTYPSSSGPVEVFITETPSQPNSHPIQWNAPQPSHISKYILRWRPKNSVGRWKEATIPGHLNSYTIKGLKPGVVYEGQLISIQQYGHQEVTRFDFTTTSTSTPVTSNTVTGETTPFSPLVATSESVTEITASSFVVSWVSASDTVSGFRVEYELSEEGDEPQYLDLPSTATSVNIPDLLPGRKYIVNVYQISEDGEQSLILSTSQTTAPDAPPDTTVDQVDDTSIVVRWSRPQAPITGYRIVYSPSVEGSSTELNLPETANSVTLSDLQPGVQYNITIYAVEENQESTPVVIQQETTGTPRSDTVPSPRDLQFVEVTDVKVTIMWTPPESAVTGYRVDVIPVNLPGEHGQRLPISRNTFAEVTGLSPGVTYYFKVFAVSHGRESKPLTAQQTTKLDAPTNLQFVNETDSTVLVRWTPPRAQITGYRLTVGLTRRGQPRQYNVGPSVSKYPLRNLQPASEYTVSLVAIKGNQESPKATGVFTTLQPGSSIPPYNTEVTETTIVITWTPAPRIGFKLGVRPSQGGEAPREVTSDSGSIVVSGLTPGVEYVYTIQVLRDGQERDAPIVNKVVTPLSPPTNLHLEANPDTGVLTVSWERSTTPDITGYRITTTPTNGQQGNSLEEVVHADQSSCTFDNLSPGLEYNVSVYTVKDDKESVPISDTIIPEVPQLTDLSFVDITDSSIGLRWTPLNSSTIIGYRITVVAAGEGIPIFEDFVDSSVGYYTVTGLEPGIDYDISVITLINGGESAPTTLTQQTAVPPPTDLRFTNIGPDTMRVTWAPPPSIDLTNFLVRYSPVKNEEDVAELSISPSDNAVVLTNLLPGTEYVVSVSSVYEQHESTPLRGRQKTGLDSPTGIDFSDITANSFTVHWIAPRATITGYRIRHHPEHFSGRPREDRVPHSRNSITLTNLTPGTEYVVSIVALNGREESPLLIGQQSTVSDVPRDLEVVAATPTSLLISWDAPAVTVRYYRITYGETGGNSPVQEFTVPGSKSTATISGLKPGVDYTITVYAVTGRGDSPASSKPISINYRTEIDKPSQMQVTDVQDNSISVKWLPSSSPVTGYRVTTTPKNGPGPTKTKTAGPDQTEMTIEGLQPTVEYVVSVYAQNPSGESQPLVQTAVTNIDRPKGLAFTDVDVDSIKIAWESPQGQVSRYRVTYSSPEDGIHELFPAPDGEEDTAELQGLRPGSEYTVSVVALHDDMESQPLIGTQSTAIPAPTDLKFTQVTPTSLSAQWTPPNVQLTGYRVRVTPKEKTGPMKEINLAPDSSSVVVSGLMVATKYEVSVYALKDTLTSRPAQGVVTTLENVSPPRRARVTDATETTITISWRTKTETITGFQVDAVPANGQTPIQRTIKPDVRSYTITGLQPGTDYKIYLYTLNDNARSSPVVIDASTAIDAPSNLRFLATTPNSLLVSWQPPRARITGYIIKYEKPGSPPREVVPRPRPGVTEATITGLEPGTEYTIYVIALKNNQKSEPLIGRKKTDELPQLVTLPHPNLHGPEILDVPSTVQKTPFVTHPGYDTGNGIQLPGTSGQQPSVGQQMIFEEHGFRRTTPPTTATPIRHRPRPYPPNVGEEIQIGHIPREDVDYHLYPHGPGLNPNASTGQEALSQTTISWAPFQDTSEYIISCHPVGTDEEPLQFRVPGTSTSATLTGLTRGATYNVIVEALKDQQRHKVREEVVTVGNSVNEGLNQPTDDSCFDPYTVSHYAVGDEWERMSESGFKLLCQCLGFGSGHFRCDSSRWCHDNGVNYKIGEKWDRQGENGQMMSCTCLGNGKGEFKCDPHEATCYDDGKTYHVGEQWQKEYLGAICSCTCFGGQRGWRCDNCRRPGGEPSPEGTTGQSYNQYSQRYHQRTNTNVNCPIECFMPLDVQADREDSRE

With CEACAM5 A3 domain (from UniProt P06731), the Kd – broadly, the concentration at which binding is half-saturated – in experiment [1] is 18 nM. For “Recombinant Opa60 reconstituted into liposomes (natural protein)”, the results for the Kd in experiment [2] and in experiment [3] were 1.6 nM and 4.3 nM, respectively.

For the molecule “CEACAM5 N-terminal domain (from UniProt P06731)”, the Kd in experiment [4] is 100 nM; in experiment [5], 16 nM.

B1: Fluorescently labeled NCCM3 H139C (domain or fragment, human)
chain: PGSGAKLTIESMPLSVAEGKEVLLLVHNLPQHLFGYSWYKGERVDGNSLIVGYVIGTQQATPGAAYSGRETIYTNASLLIQNVTQNDIGFYTLQVIKSDLVNEEATGQFCVYQ
modifications: AMS (4-acetamido-4'-maleimidylstilbene-2,2'-disulfonic acid) on the introduced cysteine (H139C)
Turning to B1, in experiment [6], the Kd was determined as 6.8 ± 2.2 nM.

B2: Fluorescently labeled NCCM1 H139C (domain or fragment, human, UniProt P13688-1 35-141, looked up)
chain: QLTTESMPFNVAEGKEVLLLVHNLPQQLFGYSWYKGERVDGNRQIVGYAIGTQQATPGPANSGRETIYPNASLLIQNVTQNDTGFYTLQVIKSDLVNEEATGQFCVY
modifications: AMS (4-acetamido-4'-maleimidylstilbene-2,2'-disulfonic acid) on the introduced cysteine (H139C)
B2: the Kd in experiment [6] turned out to be 2.6 ± 1.3 nM.
